# Results as given in publication PMC11067744.
# Molecular target: YenB (UniProt B6A880)
# Assay: SEC-MALS
# Sequence of UniProt B6A880 (B6A880 whole entry): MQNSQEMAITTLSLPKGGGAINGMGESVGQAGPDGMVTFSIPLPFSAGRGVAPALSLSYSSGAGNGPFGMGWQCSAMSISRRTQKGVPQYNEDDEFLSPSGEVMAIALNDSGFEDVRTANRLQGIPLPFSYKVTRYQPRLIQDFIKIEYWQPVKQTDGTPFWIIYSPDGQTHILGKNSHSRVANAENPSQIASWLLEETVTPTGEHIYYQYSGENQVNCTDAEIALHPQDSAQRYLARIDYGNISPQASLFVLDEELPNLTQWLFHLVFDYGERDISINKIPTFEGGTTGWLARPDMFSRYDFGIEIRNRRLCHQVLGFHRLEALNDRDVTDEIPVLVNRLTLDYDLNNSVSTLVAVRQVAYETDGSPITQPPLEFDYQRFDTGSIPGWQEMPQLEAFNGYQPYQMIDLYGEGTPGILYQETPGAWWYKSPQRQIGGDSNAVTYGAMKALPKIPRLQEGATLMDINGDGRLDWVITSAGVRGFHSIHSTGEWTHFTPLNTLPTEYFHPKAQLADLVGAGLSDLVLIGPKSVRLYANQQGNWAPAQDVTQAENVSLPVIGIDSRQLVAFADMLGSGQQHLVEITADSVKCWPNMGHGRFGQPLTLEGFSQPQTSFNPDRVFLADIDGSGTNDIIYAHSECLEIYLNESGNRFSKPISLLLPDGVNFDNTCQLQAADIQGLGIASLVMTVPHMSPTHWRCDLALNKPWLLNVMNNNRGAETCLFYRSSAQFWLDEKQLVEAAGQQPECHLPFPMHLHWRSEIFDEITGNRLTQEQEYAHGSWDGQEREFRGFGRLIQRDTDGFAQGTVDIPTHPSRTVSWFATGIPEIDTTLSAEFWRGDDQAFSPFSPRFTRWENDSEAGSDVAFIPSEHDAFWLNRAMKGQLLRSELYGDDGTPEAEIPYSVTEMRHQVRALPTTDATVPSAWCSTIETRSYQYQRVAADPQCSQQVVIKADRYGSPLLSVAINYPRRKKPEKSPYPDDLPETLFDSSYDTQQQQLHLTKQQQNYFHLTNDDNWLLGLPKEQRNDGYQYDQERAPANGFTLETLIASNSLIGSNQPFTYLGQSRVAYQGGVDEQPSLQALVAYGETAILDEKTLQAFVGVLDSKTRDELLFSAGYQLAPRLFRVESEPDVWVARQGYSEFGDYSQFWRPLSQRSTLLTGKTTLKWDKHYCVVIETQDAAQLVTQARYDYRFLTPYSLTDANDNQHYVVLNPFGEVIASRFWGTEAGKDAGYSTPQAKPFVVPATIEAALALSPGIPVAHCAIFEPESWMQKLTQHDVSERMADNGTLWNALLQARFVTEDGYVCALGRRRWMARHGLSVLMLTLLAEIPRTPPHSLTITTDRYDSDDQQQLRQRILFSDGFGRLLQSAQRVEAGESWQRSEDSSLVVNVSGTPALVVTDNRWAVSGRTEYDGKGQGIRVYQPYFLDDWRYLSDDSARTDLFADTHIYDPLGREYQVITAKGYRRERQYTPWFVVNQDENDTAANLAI
row,Substance,stoichiometry N
1,YenC3^CTD (domain or fragment),1
2,YenC3^NTD (domain or fragment),1
